Assay results from patent US10221225B2, “Peptides and combination of peptides and scaffolds thereof for use in immunotherapy against colorectal carcinoma (CRC) and other cancers” (immatics biotechnologies GmbH, priority 2015, dated 2019).

Legend:
CD8+ T-cells = experiment: In vitro T-cell priming assay with aAPCs loaded with peptide/MHC and anti-CD28, pMHC multimer readout; format: cell-based, human; settings: in vitro immunogenicity; for Wells positive: HLA-A*02 restricted peptides; for donors (percentage of positive donors) / wells (percentage of positive wells): HLA class I peptides
From the text: In order to obtain information regarding the immunogenicity of the TUMAPs of the present invention, the inventors performed investigations using an in vitro T-cell priming assay based on repeated stimulations of CD8+ T-cells with artificial antigen presenting cells (aAPCs) loaded with peptide/MHC complexes and anti-CD28 antibody.
In order to perform in vitro stimulations by artificial antigen presenting cells loaded with peptide-MHC complex (pMHC) and anti-CD28 antibody, the inventors first isolated CD8+ T-cells from fresh HLA-A*02 leukopheresis products via positive selection using CD8 microbeads (Miltenyi Biotec, Bergisch-Gladbach, Germany) of healthy donors obtained from the University clinics Mannheim, Germany, after informed consent.
PBMCs and isolated CD8+ lymphocytes were incubated in T-cell medium (TCM) until use consisting of RPMI-Glutamax (Invitrogen, Karlsruhe, Germany) supplemented with 10% heat inactivated human AB serum (PAN-Biotech, Aidenbach, Germany), 100 U/ml Penicillin/100 μg/ml Streptomycin (Cambrex, Cologne, Germany), 1 mM sodium pyruvate (CC Pro, Oberdorla, Germany), 20 μg/ml Gentamycin (Cambrex). 2.5 ng/ml IL-7 (PromoCell, Heidelberg, Germany) and 10 U/ml IL-2 (Novartis Pharma, Nürnberg, Germany) were also added to the TCM at this step.
Generation of pMHC/anti-CD28 coated beads, T-cell stimulations and readout was performed in a highly defined in vitro system using four different pMHC molecules per stimulation condition and 8 different pMHC molecules per readout condition.
The purified co-stimulatory mouse IgG2a anti human CD28 Ab 9.3 (Jung et al., 1987) was chemically biotinylated using Sulfo-N-hydroxysuccinimidobiotin as recommended by the manufacturer (Perbio, Bonn, Germany). Beads used were 5.6 μm diameter streptavidin coated polystyrene particles (Bangs Laboratories, Illinois, USA).
800,000 beads/200 μl were coated in 96-well plates in the presence of 4×12.5 ng different biotin-pMHC, washed and 600 ng biotin anti-CD28 were added subsequently in a volume of 200 μl. Stimulations were initiated in 96-well plates by co-incubating 1×10^6 CD8+ T-cells with 2×10^5 washed coated beads in 200 μl TCM supplemented with 5 ng/ml IL-12 (PromoCell) for 3 days at 37° C. Half of the medium was then exchanged by fresh TCM supplemented with 80 U/ml IL-2 and incubating was continued for 4 days at 37° C. This stimulation cycle was performed for a total of three times. For the pMHC multimer readout using 8 different pMHC molecules per condition, a two-dimensional combinatorial coding approach was used as previously described (Andersen et al., 2012) with minor modifications encompassing coupling to 5 different fluorochromes. Finally, multimeric analyses were performed by staining the cells with Live/dead near IR dye (Invitrogen, Karlsruhe, Germany), CD8-FITC antibody clone SK1 (BD, Heidelberg, Germany) and fluorescent pMHC multimers. For analysis, a BD LSRII SORP cytometer equipped with appropriate lasers and filters was used. Peptide specific cells were calculated as percentage of total CD8+ cells. Evaluation of multimeric analysis was done using the FlowJo software (Tree Star, Oregon, USA). In vitro priming of specific multimer+ CD8+ lymphocytes was detected by comparing to negative control stimulations.

HLA-A*02:01 = HLA-A*02:01 (Homo sapiens, UniProt P04439, D140Y/D185E/D98H/E176V/E277Q/G131W/G231S/I119V/I121R/I166T/I218V/L300P/L318F/N151K/N90K/P208A/P217A/Q86G/Q94H/R138H/R169H/T345S); experiment: MHC binding assay (UV-ligand exchange, beta2m ELISA, peptide exchange yield); settings: MHC class I binding score; binding to HLA-A*02:01 ranged by peptide exchange yield (UV-ligand exchange, β2m ELISA)
From the text: Candidate peptides for T cell based therapies according to the present invention were further tested for their MHC binding capacity (affinity). The individual peptide-MHC complexes were produced by UV-ligand exchange, where a UV-sensitive peptide is cleaved upon UV-irradiation, and exchanged with the peptide of interest as analyzed. Only peptide candidates that can effectively bind and stabilize the peptide-receptive MHC molecules prevent dissociation of the MHC complexes. To determine the yield of the exchange reaction, an ELISA was performed based on the detection of the light chain (β2m) of stabilized MHC complexes. The assay was performed as generally described in Rodenko et al. (Rodenko et al., 2006).
96 well MAXISorp plates (NUNC) were coated over night with 2 ug/ml streptavidin in PBS at room temperature, washed 4× and blocked for 1 h at 37° C. in 2% BSA containing blocking buffer. Refolded HLA-A*02:01/MLA-001 monomers served as standards, covering the range of 15-500 ng/ml. Peptide-MHC monomers of the UV-exchange reaction were diluted 100 fold in blocking buffer. Samples were incubated for 1 h at 37° C., washed four times, incubated with 2 ug/ml HRP conjugated anti-β2m for 1 h at 37° C., washed again and detected with TMB solution that is stopped with […]. Absorption was measured at 450 nm. Candidate peptides that show a high exchange yield (preferably higher than 50%, most preferred higher than 75%) are generally preferred for a generation and production of antibodies or fragments thereof, and/or T cell receptors or fragments thereof, as they show sufficient avidity to the MHC molecules and prevent dissociation of the MHC complexes.

Substance | Wells positive (CD8+ T-cells) | Peptide exchange (HLA-A*02:01) | donors (percentage of positive donors) (CD8+ T-cells) | wells (percentage of positive wells) (CD8+ T-cells)
1 (ALIKQLFEA; listed as Homo sapiens) [compound 1] | ″+″ (<20% = +) | ″+++″ (≥50 = +++) | – | –
2 (ALLPRYFFL; listed as Homo sapiens) [compound 2] | ″++++″ (>= 70% = ++++) | ″++″ (≥20% = ++) | – | –
3 (RLIPDTLYSV; listed as Homo sapiens) [compound 3] | ″+++″ (50%-69% = +++) | ″++++″ (≥75% = ++++) | – | –
5 (WLFDDGGLTL; listed as Homo sapiens) [compound 5] | ″++″ (20%-49% = ++) | ″++++″ (≥75% = ++++) | – | –
7 (YLTRHLAVL; listed as Homo sapiens) [compound 7] | ″+″ (<20% = +) | ″++″ (≥20% = ++) | – | –
9 (ILDDHLSRV; listed as Homo sapiens) [compound 9] | ″+″ (<20% = +) | ″++″ (≥20% = ++) | – | –
10 (RMYNKIFAI; listed as Homo sapiens) [compound 10] | ″++++″ (>= 70% = ++++) | ″+++″ (≥50 = +++) | – | –
11 (YLFEKTFNM; listed as Homo sapiens) [compound 11] | ″+″ (<20% = +) | ″+++″ (≥50 = +++) | – | –
12 (ALVQGILERV; listed as Homo sapiens) [compound 12] | ″++++″ (>= 70% = ++++) | ″+++″ (≥50 = +++) | – | –
13 (FLLAEDTKV; listed as Homo sapiens) [compound 13] | ″++″ (20%-49% = ++) | ″+++″ (≥50 = +++) | – | –
17 (ALAAARVEL; listed as Homo sapiens) [compound 17] | ″++″ (20%-49% = ++) | ″+++″ (≥50 = +++) | – | –
18 (FLSSLKGGLL; listed as Homo sapiens) [compound 18] | ″+″ (<20% = +) | ″+++″ (≥50 = +++) | – | –
19 (RLYTKLLNEA; listed as Homo sapiens) [compound 19] | ″+++″ (50%-69% = +++) | ″+++″ (≥50 = +++) | – | –
21 (VLIDHRWVL; listed as Homo sapiens) [compound 21] | ″+″ (<20% = +) | ″+++″ (≥50 = +++) | – | –
22 (GLIDEVMVL; listed as Homo sapiens) [compound 22] | ″++″ (20%-49% = ++) | ″+++″ (≥50 = +++) | – | –
31 (LLYGKYVSV; listed as Homo sapiens) [compound 31] | ″++″ (20%-49% = ++) | ″+++″ (≥50 = +++) | – | –
32 (KLNTETFGV; listed as Homo sapiens) [compound 32] | ″++″ (20%-49% = ++) | ″++″ (≥20% = ++) | – | –
37 (GLFAGLGGAGA; listed as Homo sapiens) [compound 37] | ″+″ (<20% = +) | ″+++″ (≥50 = +++) | – | –
38 (SLAPTPVSA; listed as Homo sapiens) [compound 38] | ″+″ (<20% = +) | ″++″ (≥20% = ++) | – | –
42 (SILDDSFKL; listed as Homo sapiens) [compound 42] | ″+″ (<20% = +) | ″++++″ (≥75% = ++++) | – | –
47 (KLYERCEVV; listed as Homo sapiens) [compound 47] | ″+″ (<20% = +) | ″++″ (≥20% = ++) | – | –
169 (YLAHFIEGL; listed as Homo sapiens) [compound 169] | – | ″+++″ (≥50 = +++) | – | –
170 (ALAGGITMV; listed as Homo sapiens) [compound 170] | – | ″+++″ (≥50 = +++) | – | –

Substance | Wells positive (CD8+ T-cells) | Peptide exchange (HLA-A*02:01) | donors (percentage of positive donors) (CD8+ T-cells) | wells (percentage of positive wells) (CD8+ T-cells)
171 (RLQETEGMVAV; listed as Homo sapiens) [compound 171] | – | ″++″ (≥20% = ++) | – | –
172 (LLLDTVTMQV; listed as Homo sapiens) [compound 172] | – | ″+++″ (≥50 = +++) | – | –
173 (KLGDLMVLL; listed as Homo sapiens) [compound 173] | – | ″+++″ (≥50 = +++) | – | –
174 (ILLDDNMQIRL; listed as Homo sapiens) [compound 174] | – | ″++++″ (≥75% = ++++) | – | –
175 (TLLGGKEAQALGV; listed as Homo sapiens) [compound 175] | – | ″+++″ (≥50 = +++) | – | –
176 (RTLDKVLEV; listed as Homo sapiens) [compound 176] | – | ″++″ (≥20% = ++) | – | –
177 (ALLQGAIESV; listed as Homo sapiens) [compound 177] | – | ″+++″ (≥50 = +++) | – | –
178 (YLFREPATI; listed as Homo sapiens) [compound 178] | – | ″++″ (≥20% = ++) | – | –
179 (RLLSPLSSA; listed as Homo sapiens) [compound 179] | – | ″+++″ (≥50 = +++) | – | –
181 (NLFDLGGQYLRV; listed as Homo sapiens) [compound 181] | – | ″+++″ (≥50 = +++) | – | –
182 (SLNKWIFTV; listed as Homo sapiens) [compound 182] | – | ″++++″ (≥75% = ++++) | – | –
183 (TLQEVVTGV; listed as Homo sapiens) [compound 183] | – | ″+++″ (≥50 = +++) | – | –
184 (SLLDENNVSSYL; listed as Homo sapiens) [compound 184] | – | ″+++″ (≥50 = +++) | – | –
185 (VLYTGVVRV; listed as Homo sapiens) [compound 185] | – | ″+++″ (≥50 = +++) | – | –
186 (KMSEKILLL; listed as Homo sapiens) [compound 186] | – | ″+++″ (≥50 = +++) | – | –
187 (GLHNVVYGI; listed as Homo sapiens) [compound 187] | – | ″+++″ (≥50 = +++) | – | –
188 (FLVDGPRVQL; listed as Homo sapiens) [compound 188] | – | ″+++″ (≥50 = +++) | – | –
189 (AISEVIGKITA; listed as Homo sapiens) [compound 189] | – | ″+++″ (≥50 = +++) | – | –
190 (AMAEMVLQV; listed as Homo sapiens) [compound 190] | – | ″+++″ (≥50 = +++) | – | –
191 (QLFSEIHNL; listed as Homo sapiens) [compound 191] | – | ″++++″ (≥75% = ++++) | – | –
219 (FLDEKGRCV; listed as Homo sapiens) [compound 219] | – | – | +++ (50%-69% = +++) | ++ (20%-49% = ++)
220 (KMDPVAYRV; listed as Homo sapiens) [compound 220] | – | – | ++++ (>=70% = ++++) | +++ (50%-69% = +++)
